# ± gives the standard deviation of the averaged measurements.
# System: ATP
# Experiment: switch fluorescence ratio, 500 uM ATP over buffer (Cy3 cluster intensity, sum of 5 cycles each) (fold (ratio)); higher = stronger signal-on switching upon ATP binding; sequences stand for … in TCGTCGGCAGCGTCAGATGTGTATAAGAGACAGTTTTTTTTTTTTTTTTTTTTTTTTT…TC
# Details: aptamer strand: ATP DNA aptamer (quencher-CACCTGGGGGAGTATTGCGGAGGAAGG + anchor), 100 nM annealed; ATP concentration: 500 uM
# Outline: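 Cy3-labelled switching-strand clusters on a modified Illumina MiSeq flow-cell were annealed to 100 nM quencher-labelled ATP aptamer and imaged first in selection buffer, then after 15 min with 500 uM ATP at 22 °C. NaOH stripping and re-annealing separated each of five buffer/ATP cycles, and clusters outside 100-1000 RFU were excluded. The fluorescence ratio sums target-cycle Cy3 intensity over buffer-cycle Cy3 intensity per cluster and averages it per switch-domain sequence.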
# 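Also: ATP exposure 15 min at 22 °C before imaging.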
row,Sequence,switch fluorescence ratio
1,TTGTAGGGGT,1.02 ± 0.052
2,TTGTAGGGT,0.986 ± 0.014
3,TTGTAGTCTC,1.03 ± 0.11
4,TTGTATTTA,1.01 ± 0.05
5,TTGTATTTTG,0.985 ± 0.038
6,TTGTATTTTT,0.98 ± 0.033
7,TTGTCATTTT,1.04 ± 0.067
8,TTGTCGGCG,1 ± 0.013
9,TTGTCGGCTT,1.002 ± 0.0092
10,TTGTCGTGCC,1.031 ± 0.0098
11,TTGTCGTGTG,1 ± 0.033
12,TTGTCTGTTA,1 ± 0.043
13,TTGTGAAAAA,0.972 ± 0.026
14,TTGTGAAATT,0.993 ± 0.015
15,TTGTGAACCG,0.973 ± 0.014
16,TTGTGAATTA,0.982 ± 0.022
17,TTGTGAATTC,0.977 ± 0.043
18,TTGTGAGTTT,1 ± 0.055
19,TTGTGATGTG,0.986 ± 0.023
20,TTGTGATTAG,0.982 ± 0.032
21,TTGTGCAAGG,1.34 ± 0.47
22,TTGTGCATTT,1.01 ± 0.011
23,TTGTGCCGGG,0.9391 ± 0.0045
24,TTGTGCGGGA,0.999 ± 0.013
25,TTGTGCTGGG,0.998 ± 0.022
26,TTGTGCTTTA,1.006 ± 0.0062

row,Sequence,switch fluorescence ratio
1,TTGTGGAGAG,1.09 ± 0.12
2,TTGTGGAGTT,1.01 ± 0.017
3,TTGTGGGAGG,0.997 ± 0.033
4,TTGTGGGCGA,0.9947 ± 0.0014
5,TTGTGGGGAC,1 ± 0.033
6,TTGTGGGGGT,0.998 ± 0.02
7,TTGTGGGTTG,1.89 ± 1.2
8,TTGTGGTCGC,0.97 ± 0.024
9,TTGTGGTTGG,0.994 ± 0.021
10,TTGTGTAGTT,1.01 ± 0.024
11,TTGTGTATGC,0.958 ± 0.1
12,TTGTGTGGCA,1.02 ± 0.054
13,TTGTGTGGGT,0.993 ± 0.02
14,TTGTGTGGTT,0.963 ± 0.038
15,TTGTGTGTCA,0.994 ± 0.022
16,TTGTGTTGCG,1.03 ± 0.051
17,TTGTGTTGGG,1.01 ± 0.034
18,TTGTGTTTCT,0.9974 ± 0.0066
19,TTGTGTTTTG,1.16 ± 0.39
20,TTGTTACACA,1.05 ± 0.043
21,TTGTTAGGAT,1.07 ± 0.062
22,TTGTTATATT,0.983 ± 0.026
23,TTGTTCATAC,1.27 ± 0.37
24,TTGTTCGACT,1.02 ± 0.016
25,TTGTTCGGCC,0.992 ± 0.035
26,TTGTTGAAAC,1.03 ± 0.085

row,Sequence,switch fluorescence ratio
1,TTGTTGAGAG,1.02 ± 0.022
2,TTGTTGCCTG,0.9907 ± 0.0083
3,TTGTTGCGGG,0.977 ± 0.019
4,TTGTTGCTTA,1.05 ± 0.006
5,TTGTTGGGGT,1.05 ± 0.12
6,TTGTTGTGTG,0.973 ± 0.033
7,TTGTTGTTAT,0.991 ± 0.017
8,TTGTTTCCGA,1 ± 0.058
9,TTGTTTCGGT,1.02 ± 0.063
10,TTGTTTGATA,0.9883 ± 0.0073
11,TTGTTTGGAC,1.03 ± 0.013
12,TTGTTTGTGC,1.02 ± 0.023
13,TTGTTTTATC,1 ± 0.021
14,TTGTTTTTGG,0.987 ± 0.032
15,TTGTTTTTTA,1.01 ± 0.016
16,TTTAAAAAAC,1 ± 0.026
17,TTTAAAAATT,0.987 ± 0.026
18,TTTAAAACCA,1.004 ± 0.0039
19,TTTAAAACGG,1.01 ± 0.06
20,TTTAAAATCT,1.016 ± 0.0092
21,TTTAAAGACT,1.01 ± 0.056
22,TTTAAAGATG,0.999 ± 0.018
23,TTTAAAGATT,1.01 ± 0.037
24,TTTAAAGCGG,1.01 ± 0.026
25,TTTAAAGGGG,1.05 ± 0.14
26,TTTAAAGTGG,0.98 ± 0.015

row,Sequence,switch fluorescence ratio
1,TTTAAATAAA,1 ± 0.017
2,TTTAAATGCC,1.05 ± 0.05
3,TTTAACAACT,1.01 ± 0.017
4,TTTAACCGGT,1.047 ± 0.0073
5,TTTAACCTGC,1.06 ± 0.011
6,TTTAACGGGA,1.15 ± 0.17
7,TTTAACGTCA,1.05 ± 0.023
8,TTTAAGAAAT,0.986 ± 0.011
9,TTTAAGACGA,1.02 ± 0.014
10,TTTAAGGGAC,1.05 ± 0.021
11,TTTAAGTACG,1.21 ± 0.048
12,TTTAATAAAG,1.02 ± 0.041
13,TTTAATAATT,1.03 ± 0.032
14,TTTAATACGT,1.023 ± 0.0034
15,TTTAATCATT,1 ± 0.029
16,TTTAATGCGC,1.23 ± 0.37
17,TTTAATGGAG,1.02 ± 0.034
18,TTTAATGGGA,1.03 ± 0.05
19,TTTAATTA,1.01 ± 0.032
20,TTTAATTACT,1.04 ± 0.037
21,TTTAATTAGG,1.03 ± 0.028
22,TTTAATTTAT,1.09 ± 0.12
23,TTTAATTTTA,1 ± 0.02
24,TTTAATTTTT,0.988 ± 0.036
25,TTTACAGTTG,0.96 ± 0.014
26,TTTACCCGGC,1.1 ± 0.13

row,Sequence,switch fluorescence ratio
1,TTTACCGCTC,1.26 ± 0.073
2,TTTACGAGGT,1.01 ± 0.037
3,TTTACGAGTA,1.01 ± 0.012
4,TTTACGAGTG,1.03 ± 0.019
5,TTTACGCGCA,1.01 ± 0.03
6,TTTACGGAGG,1.03 ± 0.021
7,TTTACGTAGT,1.03 ± 0.019
8,TTTACGTGCG,1.054 ± 0.0061
9,TTTACGTTTT,1.03 ± 0.041
10,TTTACTCGCA,1.3 ± 0.12
11,TTTACTGAGA,1.01 ± 0.033
12,TTTACTTGTG,1.01 ± 0.035
13,TTTAGAAATA,1.05 ± 0.022
14,TTTAGAACTT,1.01 ± 0.077
15,TTTAGAAGGA,0.9796 ± 0.0067
16,TTTAGAGATG,1.24 ± 0.41
17,TTTAGATTGA,0.99606 ± 0.00096
18,TTTAGCACGA,1 ± 0.024
19,TTTAGCATAA,1.23 ± 0.13
20,TTTAGCGTCA,0.9891 ± 0.0056
21,TTTAGGACGA,0.981 ± 0.017
22,TTTAGGAGGT,1.04 ± 0.049
23,TTTAGGATCC,0.983 ± 0.022
24,TTTAGGCAT,0.986 ± 0.028
25,TTTAGGGAAA,0.961 ± 0.033
26,TTTAGGGACA,1.15 ± 0.1

row,Sequence,switch fluorescence ratio
1,TTTAGGGACT,1.02 ± 0.024
2,TTTAGGGATT,1.03 ± 0.037
3,TTTAGGGGGT,0.991 ± 0.023
4,TTTAGGTACT,1.25 ± 0.34
5,TTTAGGTAGT,0.975 ± 0.021
6,TTTAGGTCAA,0.9943 ± 0.0031
7,TTTAGGTGCA,1.16 ± 0.14
8,TTTAGGTGTG,1.02 ± 0.039
9,TTTAGGTTAA,0.9752 ± 0.0074
10,TTTAGGTTGT,0.9984 ± 0.0073
11,TTTAGTACGT,1.02 ± 0.057
12,TTTAGTATTT,1.01 ± 0.037
13,TTTAGTCGCA,0.998 ± 0.035
14,TTTAGTGAAC,1.025 ± 0.0089
15,TTTAGTGAAT,0.9966 ± 0.0051
16,TTTAGTGCCT,1.04 ± 0.012
17,TTTAGTGTGC,1.01 ± 0.03
18,TTTAGTTCCG,0.935 ± 0.025
19,TTTAGTTGAC,0.9956 ± 0.0092
20,TTTAGTTTG,1 ± 0.037
21,TTTAGTTTTC,0.991 ± 0.019
22,TTTATAACAC,1.05 ± 0.013
23,TTTATACCGA,1.067 ± 0.004
